This is an account of results in patent US20210347873A1 (SHANGHAI PHARMAEXPLORER, published 2021).

The target of test [1] is hBLyS-ECD (His-tagged extracellular domain of human BLyS protein, Ala134-Leu285) (human) (UniProt Q9Y275). Nature of the test: cell-based or functional assay.
Test [2] deals with human BLyS (full length, arginine to histidine at position 132) on CHO-K1 cells (human) (UniProt Q9Y275). As to the kind of experiment: flow cytometry, CHO-K1 hBLyS cells, antibody 13.3 nM.
For test [3], the target named is biotinylated hBLyS-ECD (human) (UniProt Q9Y275). Nature of the test: BAFF R-coated ELISA, biotinylated hBLyS-ECD bound in presence of control antibody 20 nM.
Sequence of biotinylated hBLyS-ECD (human) (Q9Y275 134-285): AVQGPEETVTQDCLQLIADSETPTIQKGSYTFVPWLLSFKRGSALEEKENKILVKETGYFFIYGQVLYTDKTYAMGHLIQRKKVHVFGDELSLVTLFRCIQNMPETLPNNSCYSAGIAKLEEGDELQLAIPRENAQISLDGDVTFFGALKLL
The target of test [4] is extracellular domain of human BLyS protein (hBLyS-ECD), His-tagged, Ala134-Leu285 (human) (UniProt Q9Y275). As to the kind of experiment: cell-based or functional assay.
Sequence of extracellular domain of human BLyS protein (hBLyS-ECD), His-tagged, Ala134-Leu285 (human) (Q9Y275 134-285): as above
For test [5], the target named is biotinylated hBLyS-ECD (human) (UniProt Q9Y275). As to the kind of experiment: BAFF R-coated ELISA, biotinylated hBLyS-ECD bound in presence of control antibody 4 nM.
For test [6] the target is unchanged. As to the kind of experiment: ELISA on captured biotinylated hBLyS-ECD; control antibody 0 nM (background).
For test [7] the target is unchanged. Nature of the test: BAFF R-coated ELISA, biotinylated hBLyS-ECD bound in presence of control antibody 100 nM.
Test [8] has the same target. Nature of the test: BAFF R-coated ELISA, biotinylated hBLyS-ECD bound in presence of control antibody 0 nM.
Test [9] shares this target. Nature of the test: BAFF R-coated ELISA, biotinylated hBLyS-ECD bound in presence of control antibody 0.032 nM.
For test [10] the target is unchanged. As to the kind of experiment: ELISA on captured biotinylated hBLyS-ECD; control antibody 2.67 nM.
For test [11] the target is unchanged. Nature of the test: BAFF R-coated ELISA, biotinylated hBLyS-ECD bound in presence of control antibody 100 nM. The source holds these as a separate data set.
Test [12] has the same target. As to the kind of experiment: ELISA on captured biotinylated hBLyS-ECD; control antibody 2.67 nM. This is another data set of the same source.
For test [13] the target is unchanged. As to the kind of experiment: BAFF R-coated ELISA, biotinylated hBLyS-ECD bound in presence of control antibody 0.0064 nM.
For test [14] the target is unchanged. As to the kind of experiment: ELISA on captured biotinylated hBLyS-ECD; control antibody 0.00427 nM.
Test [15] deals with extracellular domain of human BLyS protein (hBLyS-ECD), His-tagged, Ala134-Leu285 (human) (UniProt Q9Y275). As to the kind of experiment: cell-based or functional assay. The source holds these as a separate data set.
Test [16] has as its target His-tagged extracellular domain of human BLyS protein (hBLyS-ECD), Ala134-Leu285 (human) (UniProt Q9Y275). Nature of the test: cell-based or functional assay.
In test [17] the target is biotinylated hBLyS-ECD (human) (UniProt Q9Y275). Nature of the test: ELISA on captured biotinylated hBLyS-ECD; control antibody 0 nM (background). The source holds these as a separate data set.
For test [18] the target is unchanged. As to the kind of experiment: ELISA on captured biotinylated hBLyS-ECD; control antibody 0.0213 nM.
Test [19] has the same target. Nature of the test: ELISA on captured biotinylated hBLyS-ECD; control antibody 0.534 nM.
For test [20] the target is unchanged. Nature of the test: ELISA on captured biotinylated hBLyS-ECD; control antibody 13.3 nM.
The target of test [21] is extracellular domain of human BLyS protein (hBLyS-ECD), His-tagged, Ala134-Leu285 (human) (UniProt Q9Y275). As to the kind of experiment: cell-based or functional assay. This is another data set of the same source.
The target of test [22] is biotinylated hBLyS-ECD (human) (UniProt Q9Y275). Nature of the test: ELISA on captured biotinylated hBLyS-ECD; control antibody 0.107 nM.
The target is the same in test [23]. As to the kind of experiment: ELISA on captured biotinylated hBLyS-ECD; control antibody 0.0213 nM. This is another data set of the same source.
Test [24] shares this target. As to the kind of experiment: BAFF R-coated ELISA, biotinylated hBLyS-ECD bound in presence of control antibody 0 nM. The source holds these as a separate data set.
The target is the same in test [25]. As to the kind of experiment: ELISA on captured biotinylated hBLyS-ECD; control antibody 66.7 nM.
The target of another test is T1, biotinylated hBLyS-ECD (human, UniProt Q9Y275 134-285, biotinylated with Biotin-X-X-NHS (molar ratio 7:1); sites not stated).
T1 construct: also called biotinylated immunogen; biotinylated hBLvS-ECD
T1 sequence (Q9Y275 134-285): as above
As to the kind of experiment: ELISA on captured biotinylated hBLyS-ECD; antibody 0.534 nM.

The target in test [26] is extracellular domain of human BLyS protein (hBLyS-ECD), His-tagged, Ala134-Leu285 (human, UniProt Q9Y275 134-285). As to the kind of experiment: cell-based or functional assay.
Sequence of extracellular domain of human BLyS protein (hBLyS-ECD), His-tagged, Ala134-Leu285 (Q9Y275 134-285): as above

Read-outs that look alike come from different tables or passages of the source.

Sequence of hBLyS-ECD (His-tagged extracellular domain of human BLyS protein, Ala134-Leu285) (human) (Q9Y275 134-285): as above
Sequence of human BLyS (full length, arginine to histidine at position 132) on CHO-K1 cells (human) (Q9Y275 whole entry R130H, the tested form may be a part): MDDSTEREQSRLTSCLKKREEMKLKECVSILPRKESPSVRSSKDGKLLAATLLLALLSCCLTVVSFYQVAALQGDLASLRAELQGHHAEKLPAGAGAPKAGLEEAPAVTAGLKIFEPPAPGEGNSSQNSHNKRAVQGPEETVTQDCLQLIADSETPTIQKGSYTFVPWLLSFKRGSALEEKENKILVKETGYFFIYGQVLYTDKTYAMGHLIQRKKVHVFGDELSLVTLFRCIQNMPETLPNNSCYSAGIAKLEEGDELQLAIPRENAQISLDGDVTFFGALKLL

In the case of mIgG Control (antibody), in test [1], the mouse B lymphocyte proliferation (OD450 nm), antibody 0 nM amounted to 2730 OD450 nm; the mouse B lymphocyte proliferation (OD450 nm), antibody 0.000256 nM came to 3130 OD450 nm; the mouse B lymphocyte proliferation (OD450 nm), antibody 0.00128 nM came out at 3880 OD450 nm; the mouse B lymphocyte proliferation (OD450 nm), antibody 0.0064 nM amounted to 3700 OD450 nm. In test [1], this molecule registered a mouse B lymphocyte proliferation (OD450 nm), antibody 0.032 nM of 4010 OD450 nm; a mouse B lymphocyte proliferation (OD450 nm), antibody 0.16 nM of 4020 OD450 nm; a mouse B lymphocyte proliferation (OD450 nm), antibody 0.8 nM of 3950 OD450 nm; a mouse B lymphocyte proliferation (OD450 nm), antibody 4 nM of 3100 OD450 nm. In test [1], the mouse B lymphocyte proliferation (OD450 nm), antibody 20 nM was 2590 OD450 nm and the mouse B lymphocyte proliferation (OD450 nm), antibody 100 nM was 3400 OD450 nm. In addition, the MFI in test [2] was found to be 31.7 MFI.
On to hIgG Control (antibody), for which the OD450 nm in [3] is 1.91 OD450 nm. The same molecule had a Proportion of B lymphocytes in splenocytes (%), in vivo in mice in test [4] of 38.3%. The OD450 nm in test [5] was 1.87 OD450 nm. The molecule further displayed an OD450 nm in test [6] of 0.0731 OD450 nm. Also, the OD450 nm in test [7] is 2.2 OD450 nm. Besides, the OD450 nm in [8] was 2.37 OD450 nm. Further, the OD450 nm in [9] was 1.84 OD450 nm. In [10], this molecule had an OD450 nm of 0.0652 OD450 nm. Further, the OD450 nm in test [11] was determined as 1.87 OD450 nm. Besides, the OD450 nm in [12] turned out to be 0.237 OD450 nm. In addition, the OD450 nm in [13] turned out to be 1.99 OD450 nm. The molecule also yielded an OD450 nm in [14] of 0.0798 OD450 nm. In [15], this molecule had an OD450 nm (as headed), mouse B lymphocyte proliferation; control antibody 0 nM of 4390; an OD450 nm (as headed), mouse B lymphocyte proliferation; control antibody 0.000256 nM of 4940; an OD450 nm (as headed), mouse B lymphocyte proliferation; control antibody 0.00128 nM of 4690; an OD450 nm (as headed), mouse B lymphocyte proliferation; control antibody 0.0064 nM of 5070. In [15], this molecule gave an OD450 nm (as headed), mouse B lymphocyte proliferation; control antibody 0.032 nM of 5120; an OD450 nm (as headed), mouse B lymphocyte proliferation; control antibody 0.16 nM of 5370; an OD450 nm (as headed), mouse B lymphocyte proliferation; control antibody 0.8 nM of 5040; an OD450 nm (as headed), mouse B lymphocyte proliferation; control antibody 4 nM of 5100. In [15], this molecule returned an OD450 nm (as headed), mouse B lymphocyte proliferation; control antibody 20 nM of 4930; an OD450 nm (as headed), mouse B lymphocyte proliferation; control antibody 100 nM of 4880; a Proportion of B lymphocytes in splenocytes (%), in vivo in mice of 51%. Also, in test [16], the IgA Conc. in mouse serum, mice given hBLyS-ECD and antibody (in vivo neutralisation) turned out to be 387 µg/mL; the Proportion of B lymphocytes in splenocytes (%), mice given hBLyS-ECD and antibody (in vivo neutralisation) is 39.7%; the mouse B lymphocyte proliferation stimulated by hBLyS-ECD (viable cell signal) at 0 nM antibody (OD450 nm (as headed)) worked out at 3570; the mouse B lymphocyte proliferation stimulated by hBLyS-ECD (viable cell signal) at 0.000256 nM antibody was 3970. Besides, in test [16], the mouse B lymphocyte proliferation stimulated by hBLyS-ECD (viable cell signal) at 0.00128 nM antibody (OD450 nm (as headed)) amounted to 3860, the mouse B lymphocyte proliferation stimulated by hBLyS-ECD (viable cell signal) at 0.0064 nM antibody (OD450 nm (as headed)) came to 3730, the mouse B lymphocyte proliferation stimulated by hBLyS-ECD (viable cell signal) at 0.032 nM antibody (OD450 nm (as headed)) amounted to 3920 and the mouse B lymphocyte proliferation stimulated by hBLyS-ECD (viable cell signal) at 0.16 nM antibody (OD450 nm (as headed)) was 4200. In test [16], the mouse B lymphocyte proliferation stimulated by hBLyS-ECD (viable cell signal) at 0.8 nM antibody (OD450 nm (as headed)) amounted to 4290, the mouse B lymphocyte proliferation stimulated by hBLyS-ECD (viable cell signal) at 4 nM antibody (OD450 nm (as headed)) came out at 4430, the mouse B lymphocyte proliferation stimulated by hBLyS-ECD (viable cell signal) at 20 nM antibody (OD450 nm (as headed)) came out at 4700 and the mouse B lymphocyte proliferation stimulated by hBLyS-ECD (viable cell signal) at 100 nM antibody (OD450 nm (as headed)) turned out to be 3720. In addition, in test [17], the OD450 nm was found to be 0.119 OD450 nm. The OD450 nm in [18] came to 0.0887 OD450 nm. Also, in [19], the OD450 nm stood at 0.062 OD450 nm. The molecule also came in with an MFI in [2] of 35.1 MFI. Also, the OD450 nm in test [20] was 0.072 OD450 nm. This molecule gave a Proportion of B lymphocytes in splenocytes (%), in vivo in mice in test [21] of 39.4%. This molecule also had an OD450 nm in test [22] of 0.0662 OD450 nm. The molecule further displayed an OD450 nm in test [23] of 0.0699 OD450 nm. Besides, the OD450 nm in test [24] was 2 OD450 nm. This molecule had an OD450 nm in test [25] of 0.14 OD450 nm.

B1: c97A3C2H4 (antibody, V domains shown)
VH: EVKLVESGGGLVQPGGSLKLSCAASGFTFSTYTMSWVRQTPEKRLEWVAYISYGGGSTSYPDTVKGRFTISRDNAKNTLYLQMSSLKSEDTAIYYCTRHVTVVENSMDYWGQGTSVTVSS
VL: DILLTQSPDILSVSPGERVSFSCRASQSIGTSIHWYQQRTNGSPRLLIKYVSESFSGTPSRFSGSGSGTAFTLTINSVESEDIADYYCQQTHSWPWTFGGGTKLEIK
notes: also called chimeric antibody c97A3C2H4
For the molecule B1, the OD450 nm in the test with biotinylated hBLyS-ECD turned out to be 3.26 OD450 nm. The “Proportion of B lymphocytes in splenocytes (%), in vivo in mice” value in test [26] was determined as 24.1%.

B2: c8E7D9C7F5 (antibody, V domains shown)
VH: QVQLQQSGVELARPGASVKLSCKASGYTFTSYGISWVKQRTGQALEWIGEIYPRSGNTYYNEKFKGKATLTADKSSSTAYMELRSLTSEDSAVYFCARSGPITTLVATDYGMDYWGQGTSVTVSS
VL: DIVLTQSPASLAVSLGQRATISCRASKSVSTSSYSYMHWYQQKPGQPPKLLIKFASNLESGVPARFSGSGSGTDFTLNIHPVEEEDAATYYCQHSREFPYTFGGGTKLEIK
notes: also called chimeric antibody c8E7D9C7F5
For B2, in the test with biotinylated hBLyS-ECD, the OD450 nm was determined as 3.07 OD450 nm.
